# Patent publication US11834518 (dated 2023)
# Residue numbers refer to the chain shown, from its start. Square brackets hold non-standard residues; d marks the D form. Ends that are not written are not given here. F2Pmp = N[C@@H](Cc1ccc(C(F)(F)P(=O)(O)O)cc1)C(=O)O; pY = N[C@@H](Cc1ccc(OP(=O)(O)O)cc1)C(=O)O; AEEA = NCCOCCOCC(=O)O
# T1: STEP32 C/S (human, UniProt P54829)
# T1 chain: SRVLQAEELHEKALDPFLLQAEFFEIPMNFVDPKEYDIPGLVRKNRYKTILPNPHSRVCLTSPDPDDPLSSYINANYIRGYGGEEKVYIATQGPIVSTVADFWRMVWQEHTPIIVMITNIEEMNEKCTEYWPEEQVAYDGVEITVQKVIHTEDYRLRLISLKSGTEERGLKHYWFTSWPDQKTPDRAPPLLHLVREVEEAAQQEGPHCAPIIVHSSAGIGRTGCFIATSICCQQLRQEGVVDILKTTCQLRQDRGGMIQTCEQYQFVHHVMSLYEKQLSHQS
# T2: STEP32 WT (human, UniProt P54829)
# T2 chain: T1 chain with S215C
# Target: T1, STEP32 C/S
# Assay: SPR 25C
row,binding result,Binder
1,no binding,[AEEA]FS[pY]G [p3Ysh-7]
2,no binding,[AEEA]NS[pY]G [p3Ysh-4]

# Target: T1, STEP32 C/S
# Assay: SPR 25C
# Remark: another data set of the same source
row,Kd [nM],Binder
1,90,EGYNV[pY]E [p-fin 4]

# Target: T1, STEP32 C/S
# Assay: FP competition
row,Ki [nM],Binder
1,4140,ATYKAGYNV[pY]G [p3YAla5]
2,2530,ATYAEGYNV[pY]G [p3YAla4]
3,1620,AAYKEGYNV[pY]G [p3YAla2]
4,2310,ATYKEAYNV[pY]G [p3YAla6]
5,4810,ATAKEGYNV[pY]G [p3YAla3]
6,2470,ATYKEGYAV[pY]G [p3YAla8]
7,4450,ATYKEGANV[pY]G [p3YAla7]
8,5940,ATYKEGYNA[pY]G [p3YAla9]
9,2710,ATYKEGYNV[pY]A [p3YAla10]
10,2820,ATYKEGYNV[pY]G [p3Y]

# Target: T1, STEP32 C/S
# Assay: FP competition
# Remark: another data set of the same source
row,IC50 [µM],Binder
1,1.86,EGYNV[pY]E [p-fin 4]
2,8.84,NGYNV[pY] [p-fin 3]
3,2.6,[AEEA]EGYNV[pY] [p3Ysh-3]
4,8.01,GYNV[pY] [p-fin 1]
5,7.15,DGYNV[pY] [p-fin 2]
6,3.36,EGYNV[pY]GD [p-fin 5]

# Target: T2, STEP32 WT
# Assay: SPR 25C
row,Kd [nM],Binder
1,270,ATYKEGYNV[F2Pmp]G [3Y-F2Pmp]
2,240,EGYNV[F2Pmp] [3Ysh-3-F2Pmp]

# Target: T1, STEP32 C/S
# Assay: FP competition
# Remark: another data set of the same source
row,Ki [nM],Binder
1,360,EGYNV[pY]E [p-fin 4]
2,2160,NGYNV[pY] [p-fin 3]
3,690,[AEEA]EGYNV[pY] [p3Ysh-3]
4,1900,GYNV[pY] [p-fin 1]
5,1850,DGYNV[pY] [p-fin 2]
6,760,EGYNV[pY]GD [p-fin 5]

# Target: T1, STEP32 C/S
# Assay: SPR 25C
# Remark: another data set of the same source
row,Kd [nM],Binder
1,3960,[AEEA]YNV[pY]G [p3Ysh-2]
2,6130,[AEEA]FGYNV[pY]G [p3Ysh-6]
3,88.4,EGYNV[pY]E [p-fin 4]
4,53.1,[AEEA]EGYNV[pY] [p3Ysh-3]
5,232,ATYKEGYNV[pY]G [p3Y]
6,26000,[AEEA]NV[pY]G [p3Ysh-1]

# Target: T1, STEP32 C/S
# Assay: SPR 25C
# Remark: another data set of the same source
row,Kd [µM],Binder
1,3.96,[AEEA]YNV[pY]G [p3Ysh-2]
2,6.13,[AEEA]FGYNV[pY]G [p3Ysh-6]
3,0.06,[AEEA]EGYNV[pY] [p3Ysh-3]
4,0.24,ATYKEGYNV[pY]G [p3Y]
5,26,[AEEA]NV[pY]G [p3Ysh-1]

# Target: T2, STEP32 WT
# Assay: SPR 25C
# Remark: another data set of the same source
row,Kd [nM],Binder
1,268,ATYKEGYNV[F2Pmp]G [3Y-F2Pmp]
2,242,EGYNV[F2Pmp] [3Ysh-3-F2Pmp]

# Target: T1, STEP32 C/S
# Assay: FP competition
# Remark: another data set of the same source
row,Ki [µM],Binder
1,13.1,[AEEA]YNV[pY]G [p3Ysh-2]
2,6.96,[AEEA]FGYNV[pY]G [p3Ysh-6]
3,4.57,[AEEA]FS[pY]G [p3Ysh-7]
4,5.34,[AEEA]YV[pY]G [p3Ysh-5]
5,1.64,[AEEA]EGYNV[pY] [p3Ysh-3]
6,13.7,[AEEA]NS[pY]G [p3Ysh-4]
7,2.36,ATYKEGYNV[pY]G [p3Y]
8,4.99,[AEEA]NV[pY]G [p3Ysh-1]
